Assay results published in US20220008570A1.

Target: human CD33 (human) (UniProt P20138)
Assay: cell-based or functional assay

UniProt P20138, sequence (P20138 18-364 limits assumed): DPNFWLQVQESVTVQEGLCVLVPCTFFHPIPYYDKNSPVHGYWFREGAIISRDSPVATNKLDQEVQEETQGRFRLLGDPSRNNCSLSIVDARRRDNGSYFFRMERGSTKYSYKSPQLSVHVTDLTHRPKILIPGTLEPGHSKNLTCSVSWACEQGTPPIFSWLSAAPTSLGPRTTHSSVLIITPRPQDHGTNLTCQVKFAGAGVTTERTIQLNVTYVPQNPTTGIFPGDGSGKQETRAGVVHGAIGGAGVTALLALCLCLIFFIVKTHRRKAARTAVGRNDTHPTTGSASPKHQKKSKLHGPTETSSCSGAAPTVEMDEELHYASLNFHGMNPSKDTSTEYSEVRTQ

Substance: Lintuzumab conjugated with Actinium-225 (Ac225) (antibody)
- LD50 (dose at which 50% of the cells were killed), cytotoxicity on HL60 leukemia cell suspensions: 8 pCi per mL
